Measurements taken from the supplement of paper PMC9170038.

Tested on: MS2 coat protein
Assay: apparent KD of MS2 coat protein; designed switch direction (-1 OFF switch, 1 ON switch): -1; higher = weaker reporter binding
Summary of the method: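 The buffer was Tris-HCl pH 7.5 with KCl, MgCl2, BSA, DTT, tRNA and Tween-20. In it, SNAP-549-labelled MS2 coat protein was titrated in doubling steps from 0.7 or 1.5 nM to 3 µM over chip-bound RNA switches transcribed by stalled E. coli RNA polymerase on Illumina chips. Apparent KD is the per-design median over clusters of curve fits to normalised fluorescence.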

[1] = Eterna round: R95, input ligand: FMN 200 uM
[2] = Eterna round: R95, input ligand: microRNA oligo, concentration not stated
[3] = Eterna round: R95, input ligand: none
[4] = input ligand: microRNA oligo, concentration not stated

Sequence	apparent KD of MS2 coat protein [1] [nM]	apparent KD of MS2 coat protein [2] [nM]	apparent KD of MS2 coat protein [3] [nM]	apparent KD of MS2 coat protein (input ligand: FMN 200 uM) [nM]	apparent KD of MS2 coat protein [4] [nM]	apparent KD of MS2 coat protein (input ligand: none) [nM]
GGUUGGCGAGGAUAUACAUGAGGAUCACCCAUGUGAGAAUAAAAAGUGAGGAAGAAAAGUAGAAGGCGCUGACG [Mat - Exclusion 3 - Mod of Salish D5] (puzzle: Exclusion 3)	76.5	31.6	36.3			
CGUCGACAUGUAGGAUAUCUGCACGUUUAGUGCAGAGAAGGACAUGAGGAUCACCCAUGUAGAUCACGACGAAUUAAUUUAAUU [ENG1/6-C2] (Eterna round: R96, puzzle: Exclusion NG 1)				24	205	1540
CUCUUGUCAGGAUAUCAACGCCGCCCACAUGGGCAGCGAAAUGAGAAGGGACAUGAGGAUCACCCAUGUUAAAA [Retema] (puzzle: Exclusion 4)	30.4	161	218			
CCGUGCACGCUCCGGUCCUACAUGAGGAUCACCCAUGUGGUCCGGUGGCGUGGGUCGCCGGACUUGGCUCGUCUUGU [salish99_S_TOV1_R5_018] (Eterna round: R97, puzzle: Sensor, turn-off variant 1)				16.3		17.4
GGUCGCAGGACAGGAUAUCCAAGCGAUCUAACAUGAGGAUCACCCAUGUGCUAAGGCAGAGGGACGGAGAAGGGUCGAUCGGCC [Inqusodire] (Eterna round: R96, puzzle: Exclusion NG 2)				166	42.4	58.3
UUCUGCACGCUGCGGUCCUACAUGAGGAUCACCCAUGUGGUCUGGUGGCGUGGGUCGCCGGACUUGGCUCGUCUUGG [salish99_S_TOV1_R5_049] (Eterna round: R97, puzzle: Sensor, turn-off variant 1)				15.4		14.9
GAAUUAAUUAAUUAAUAAUACAUGAGGAUCACCCAUGUAGAUCCUACAUACAAGCUUUGUAGCUCGUCUUAUAAUUA [Stov1/3-A2] (Eterna round: R97, puzzle: Sensor, turn-off variant 1)				330		480
GAAAACGGAGAGGAUAUUUGAGAUCAAAGCUCCAAAGAAGGCUCCACAUGAGGAUCACCCAUGUGGUCUUCAAG [Mat - Exclusion 6 - JL Mod - D14] (Eterna round: R97, puzzle: Exclusion 6)				86.7		17
AUAAUUAGAGGAUAUGGUACAUUGCACAUGAGGAUCACCCAUGUAAGGUGACCCAUGUCGCCAGAAGGCUGAUAUG [Eternabot (L2) Solution 46] (Eterna round: R97, puzzle: Exclusion 5)				3460		460
CCUUUGUCAGGAUAUCGUGCAUACAACGAAAGUUCUAUGUGCGAGAAGGGACAUGAGGAUCACCCAUGUUACGG [Omei Ex4 A3] (Eterna round: R97, puzzle: Exclusion 4)				172		368
GACAUCGCAGGAUAUUAGAGUUUUUACAUGAGGAUCACCCAUGUUAAUUGGGUUAAUGUCUAAGAAGGGCGAUGUC [JR_EX5_Sub015] (Eterna round: R97, puzzle: Exclusion 5)				113		49.4
GUGUACAGAGGAUAUACUUAUGGAGUCACGAAAGUGGCUUCACAUGAGGAUCACCCAUGUAGAAGGCUGUACAC [Dot plot directed v11] (puzzle: Exclusion 2)		23.7				
CAUAGUUACUCAGGAUAUACUACAUGAGGAUCACCCAUGUAAUAAAUGAGAAUUUCGAAUGUAUAGUAGAAGGGAGAAAUCUAC [Ostracism 56 - Jieux - Exclusion NG 2] (Eterna round: R96, puzzle: Exclusion NG 2)				18.3	14.7	23.8
AAAUAAUAGAUAAAAUAAAACAUGAGGAUCACCCAUGUGGGAUGUUGAGGGUGAAACAAGCUUUUUGCUCGUCUUAU (puzzle: Sensor v3, turn-off variant 1)	105	502	139			
UUUAAUUUUUUUUUUUUACAAGCUUUUUGCUCGUCUUAUACAUGAGGAUCACCCAUGUGGGUGGAGGAUAAAUUAUC [JMF 35] (puzzle: Sensor v3, turn-off variant 2)	60.6	45.4	93.9			
AUUUAUGGAGGAUAUACUUGAGGAUCACCCAAGUGGAGUCCCGUUUGGGCGGUAAAUAGUAGAAGGCCGUCCUA [jl-ex3-4.47 ViennaUCT mod] (Eterna round: R97, puzzle: Exclusion 3)				15.7		14.2
AGUAUCUAUCAUGAGAGUGGUAGGUACAACAGGUGGGAAACAUGAGGAUCACCCAUGUCCUCAUUUGCUCGUCUUAU [Grok-var2-01] (puzzle: Sensor v3, turn-off variant 2)	550	144	764			

Sequence	apparent KD of MS2 coat protein [1] [nM]	apparent KD of MS2 coat protein [2] [nM]	apparent KD of MS2 coat protein [3] [nM]	apparent KD of MS2 coat protein (input ligand: FMN 200 uM) [nM]	apparent KD of MS2 coat protein [4] [nM]	apparent KD of MS2 coat protein (input ligand: none) [nM]
CCACGACAUGAGGAUCACCCAUGUCAGGAUAUCCCUCAUUGUAUGAAAAUACAAUGAGGGAGAAGGGACGUGAC [SS1 Omei 2] (puzzle: Exclusion 1)		27.1				
CUUGUUUAUGUAGGAUAUGCCUGGCGUGCCUUUGCAGAAGGACAUGAGGAUCACCCAUGUAACAUGAGGCUAACCCUUGUCGCC [salish99_ExNG1_r04_118] (Eterna round: R96, puzzle: Exclusion NG 1)				86.7	65.7	96
ACUGGUCGAGGAUAUACGAUCGUGCUUCGGCACGUAAGAUCACAUGAGGAUCACCCAUGUAGAAGGCGACCAGU [Mod 4 - Jieux - Exclusion 2] (Eterna round: R97, puzzle: Exclusion 2)				246		35.3
AACCGCAUAGGAUAUCGAGCAGAGGACUUGAGGAUCACCCAAGUCCUUGAGUUCUUUGUCCGAGAAGGAUGAACAU [Ususrace] (Eterna round: R97, puzzle: Exclusion 5)				13.7		14.6
UCAAGUAUGUAGGAUAUCGAUGUCUACGGACAUCGAGAAGGACGUACAUGAGGAUCACCCAUGUAACUUGCAUG [Exclusion 6 - B - 10:d] (puzzle: Exclusion 6)	37.2	79.4	108			
CUGUUUUUCGCAGGAUAUGCUCCUCCAUUAUUUGCAGAAGGGCGUUAAACAUGAGGAUCACCCAUGUAUGGUAAUGACUAUUUC [JR_ExcNG1_Sub065] (Eterna round: R96, puzzle: Exclusion NG 1)				125	43.6	40.7
AAACUGCAUGUGAGGAUAUGCACCGGCUAAACCGGGCAGAAGGCACAUGAGGAUCACCCAUGUCAUCCUAUUGC [Esleisus] (puzzle: Brourd's mod of Exclusion 4)		9.01				
CCGUGGUUAGGAUAUUCGAAUGAGCACAUGAGGAUCACCCAUGUCUGAAUUGACAGCCGAGAAGAAGGAACCACUC [Eternabot (L2) Solution 24] (Eterna round: R97, puzzle: Exclusion 5)				29.5		23.3
ACAUGUAAUGUAGGAUAUUUUACACAUGAGGAUCACCCAUGUGACCAGAGGCUUUACUAUGAGUAAAAGAAGGGUAUGUACAUG [Ex NG2 #60] (Eterna round: R96, puzzle: Exclusion NG 2)				69.6	33.5	54.2
ACAUGUGUUGUAGGAUAUAGGAGACAUGAGGAUCACCCAUGUUGAUUCAUGUCUAUGGAAACGUCCUAGAAGGACGACAACAUG [Ex NG2 #20] (Eterna round: R96, puzzle: Exclusion NG 2)				237	111	201
AUACCACGAGGAUAUCGUCUAUUCCACAUGAGGAUCACCCAUGUUAUCCAUGUUUCGUUUCGAGAAGGCGUGUUUU [JR_E5_Sub075] (puzzle: Exclusion 5)		54.1				
UUAUAUAAUGUGAGGAUAUGCUGGUCGAUAGAUCAGCAGAAGGCACAUGAGGAUCACCCAUGUAGUAAAUUUUA [Mat - Exclusion 4 - JL Mod - D13] (puzzle: Brourd's mod of Exclusion 4)	25.5	16.4	16.2			
UUUUUAUAUGAAGGAUAUACUUAACAUGAGGAUCACCCAUGUGGUGUUGUGAGUGAGUGAGUUUAGUAGAAGGUCAAUUAUUUC [JMF's solution 17] (Eterna round: R96, puzzle: Exclusion NG 2)				537	292	549
GUCUUCAUGACAUGAGGAUCACCCAUGUGUUAUUUGUUAACUAAGGAUAUAUUUUUAAUGUUGAGAUAGAAGGUAGUUUCGGUC [JR_ExcNG3_Sub090] (Eterna round: R96, puzzle: Exclusion NG 3)				161	93	149
AAUUUACAUGAGGAUCACCCAUGUGAGGAUAUAUAAAUAUAUAUGUUAUUGUAUGUUUGUAGAAGGCGCGUGAU [JR_Exc1_Sub031] (Eterna round: R97, puzzle: Exclusion 1)				145		83.3
UUUUAACAUGAGGAUCACCCAUGUGAGGAUAUCGAAAUUUAUAUUAAUAUUAAUUUUACGAGAAGGCACAUUUU [JMF 34] (puzzle: Exclusion 1)		94.6				
CCCUCACAUGAGGAUCACCCAUGUCAGGAUAUCUAGUCAGACAGUAUAGCACUGCUGAAGAGAAGGGACGUAAA [Labiusce] (puzzle: Exclusion 1)		17				
